Biological target: T1, MBP-Δ116 (truncated XydR response regulator) del1-116 (Clostridium cellulolyticum H10 (ATCC 35319/DSM 5812)) (UniProt B8I0K9)
T1 sequence: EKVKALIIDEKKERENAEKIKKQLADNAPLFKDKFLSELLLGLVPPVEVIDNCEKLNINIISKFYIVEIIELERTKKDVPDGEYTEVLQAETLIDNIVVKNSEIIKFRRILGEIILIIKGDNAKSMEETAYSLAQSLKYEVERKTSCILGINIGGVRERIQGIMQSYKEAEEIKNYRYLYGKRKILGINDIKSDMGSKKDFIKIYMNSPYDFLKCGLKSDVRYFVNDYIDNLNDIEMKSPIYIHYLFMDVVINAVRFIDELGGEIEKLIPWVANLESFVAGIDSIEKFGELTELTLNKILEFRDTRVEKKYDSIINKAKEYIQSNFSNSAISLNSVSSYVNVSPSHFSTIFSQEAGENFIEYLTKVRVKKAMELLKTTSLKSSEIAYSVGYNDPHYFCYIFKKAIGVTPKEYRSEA
Assay: EMSA
Details: 10 mM Tris pH 7.5, 150 mM KCl, 1 mM DTT, 30 ng/uL salmon sperm DNA, 0.1 ug/uL BSA, 0.05% NP-40, 2.5% glycerol, 20 C, 20 min; 20 fmol probe; 5% native PAGE

Sequence | binding
CCTTCTTAATCAGTTTCTAATTGCCAAAGAATAAGAGTAAAATGATTAGTAAATCTATATTCATTATAGAATGTAAACTGTTTCCAGCTCAATATAAATCCTTTTGACTTTTGTATATTAATTTTGTAAAATATCATTTTCAGTGTATTGGAGCAACATAAAAAAAGCAGCTGTAGAAAATCCAGCTGCTTTATACTTGCTATTTGTACAATTTTAGAATTACTTGTTAATACCTTATTCCGCAGC (double strand) [R6 (upstream Ccel_1656)] | binds
GTATATAAGGTATTGACTTTCTTTGGCAGATGTAAGAATAGGAGTAAAATGAAAAGAACGATTAGTACATATTAACTATGTTAAAAATATTATAGAATGTAAATGGTTTCCATTTCAATATAAATCTTTTTGGTATTGGTATAAATTTTTGAATTCATTTTATCATATTTTGAAAAATTAGTAAATTATTTATTTTATTTTACACTTTTGTATATATTTTTTTAAATTTGTTAAGATATATTTTGCTATGCTTCACTCCTATACTCCTTTGG (double strand) [R3 (upstream Ccel_1229)] | binds

From publication PMC3572039
